Experimental data published in US7795386B2, “Peptides comprising an isoDGR motif” (Molmed SpA, priority 2004, dated 2010).

Legend:
EA.hy926 cells [1] = experiment: PIMT treatment of coated products followed by EA.hy926 cell adhesion assay; assay type: cell-based, human; details: PIMT 16 h at 37° C.
Protocol: Microtiterplates were coated with heat-treated FN-I5 or NGR-TNF (A), or with natural FN-30 KDa, FN-45 KDa or retronectin (RN) (CNGRC disclosed as SEQ ID NO: 6) (B). The adsorbed proteins were then treated with PIMT enzyme for 16 h at 37° C. After incubation the enzyme solution was removed by washing. EA.hy926 cell adhesion assay was then performed as described in Materials and Methods.
The effect of protei nL-isoAsp/D-As pO-methyltransferase (PIMT) on the pro-adhesive properties of different fragments was investigated as follows: microtiter plates were coated with various products as described above and washed with 0.9% sodium chloride. Each well was then filled with 45 μl of a solution containing 0.02 mM S-adenosyl-L-methionine in 150 mM sodium chloride, 50 mM sodium phosphate buffer, pH 6.8, and 5 μl of PIMT solution (from the Isoquant Isoaspartate Detection kit, Promega) (final volume 50 μl/well) and incubated at 37° C. for 16 h. After incubation the plates were washed with 0.9% sodium chloride and cell adhesion assay was performed as described above.

[2] = tested on: EA.hy926 cell adhesion to vitronectin; experiment: inhibition of EA.hy926 cell adhesion to vitronectin; assay type: cell-based, human; details: vitronectin 3 μg/ml coated
Protocol: (A) Inhibition of EA.hy926 cell adhesion to vitronectin by heat-treated FN-I5. Vitronectin (3 μg/ml) was adsorbed to microtiter plate and cell adhesion assay was performed as described in Materials and Methods.
(§1) Untreated and “heat treated” fibronectin fragments, peptides and peptide-TNF conjugates were diluted at the desired concentration with 150 mM sodium chloride, 50 mM sodium phosphate, pH 7.3, and added to 96-well polyvinyl chloride microtiter plates (Falcon, Becton Dickinson). After overnight incubation at 4° C., the plates were washed, seeded with EA.hy926 cell in DMEM containing 0.1% BSA (40000 cells/well) and left to incubate for 2-3 h at 37° C., 5% CO2. Adherent cells were fixed and stained with crystal violet as described (Curnis et al., 2005).

RMA lymphoma = RMA lymphoma tumor growth in mice, heat-treated FN-I5; assay type: in vivo, mouse; details: 200 μg i.p. daily from day 4; p=0.0003 at day 14
Protocol: (B) Anti-tumor effects of repeated administration of “heat-treated” FN-I5 to RMA-tumor bearing mice. Animals (5/group) were treated with 200 μg of “heat-treated” FN-I5 (i.p.) at the indicated times (arrows) starting 4 days after tumor implantation. * p=0.0003 at day 14, statistical analysis by two tailed t-test.
Studies on animal models were approved by the Ethical Committee of the San Raffaele H Scientific Institute and performed according to the prescribed guidelines. C57BL/6N mice (Charles River Laboratories, Calco, Italy) weighing 16-18 g were challenged with subcutaneous injection in the left flank of 7×10^4 RMA living cells; 4 days later, the mice were treated daily with 200 μg of heat-treated FN-I5 (100 μl) in 0.9% sodium chloride (i.p.). Tumor growth was monitored by measuring the tumors with calipers as previously described (Gasparri et al., 1999). Animals were sacrificed before the tumors reached 1.0-1.3 cm in diameter. Tumor sizes are shown as mean±SE (5 animals/group).

L-M mouse fibroblasts = experiment: standard cytolytic assay with L-M mouse fibroblasts; assay type: cell-based; details: for Cytolytic Activity: in vitro, L-M murine fibroblasts
Excerpt: Protein purity and identity were checked by SDS-PAGE, electrospray mass spectrometry and gel-filtration chromatography.
The cDNA coding for DGR-TNF (mouse TNF fused with the C-terminus of CDGRCG (SEQ ID NO: 24)) was obtained by PCR on NGR-TNF plasmid, using the following primers: 5′ […] 3′ (SEQ ID NO: 43) (5′ primer); 5′ […] ′3 (SEQ ID NO: 44) (3′ primer). Both primers were designed to allow the directional cloning into a pET101/D-TOPO plasmid expression kit (Invitrogen). The underlined sequence in 5′ primer contains the sequence necessary to enable the directional cloning and the initial translation codon whereas the 3′ primer contains the stop codon (underlined). The PCR reaction and the cloning procedure were performed as recommended by the manufacturer's instruction. […] The column was washed extensively 100 mM Tris-HCl buffer containing pH 8.0, loaded with DGR-TNF crude extract, diluted in 20 mM Tris-HCl buffer conatining 2 mM EDTA pH 8.0, and desorbed by elution with 7 M urea, 100 mM Tris-HCl, pH 8.0. DGR-TNF was then refolded as described (1). Briefly, the denatured products were dialyzed against 2.33 M urea, 100 mM Tris-HCl, pH 8.0 at 4° C. (140 min), followed by 1.55 M urea, 100 mM Tris-HCl, pH 8.0 (140 min), and 1 M urea, 100 mM Tris-HCl, pH 8 (140 min). Finally the products were dialyzed against 100 mM Tris-HCl, pH 8.0 (48 h). The products were centrifuged at 13000×g (10 min, 4° C.) and concentrated by ultra-filtration through a 10 KDa cut-off filter. All solutions used in the purification and refolding steps were prepared with sterile and endotoxin-free water (S.A.L.F. Laboratorio Farmacologico SpA, Bergamo, Italy). Protein concentration was measured using the BCA Protein Assay Reagent (Pierce, Rockford, Ill.). Protein purity and identity were checked by SDS-PAGE, electrospray mass spectrometry (ESI-MS) and analytical gel-filtration chromatography.

αvβ3 integrin [3] = molecular target: T1, αvβ3 integrin (Homo sapiens, UniProt P05106+P06756); experiment: direct ELISA binding to purified integrin adsorbed on microtiterplates
T1 construct: purchased Immunological Sciences
T1 sequence (P06756 31-889 limits assumed): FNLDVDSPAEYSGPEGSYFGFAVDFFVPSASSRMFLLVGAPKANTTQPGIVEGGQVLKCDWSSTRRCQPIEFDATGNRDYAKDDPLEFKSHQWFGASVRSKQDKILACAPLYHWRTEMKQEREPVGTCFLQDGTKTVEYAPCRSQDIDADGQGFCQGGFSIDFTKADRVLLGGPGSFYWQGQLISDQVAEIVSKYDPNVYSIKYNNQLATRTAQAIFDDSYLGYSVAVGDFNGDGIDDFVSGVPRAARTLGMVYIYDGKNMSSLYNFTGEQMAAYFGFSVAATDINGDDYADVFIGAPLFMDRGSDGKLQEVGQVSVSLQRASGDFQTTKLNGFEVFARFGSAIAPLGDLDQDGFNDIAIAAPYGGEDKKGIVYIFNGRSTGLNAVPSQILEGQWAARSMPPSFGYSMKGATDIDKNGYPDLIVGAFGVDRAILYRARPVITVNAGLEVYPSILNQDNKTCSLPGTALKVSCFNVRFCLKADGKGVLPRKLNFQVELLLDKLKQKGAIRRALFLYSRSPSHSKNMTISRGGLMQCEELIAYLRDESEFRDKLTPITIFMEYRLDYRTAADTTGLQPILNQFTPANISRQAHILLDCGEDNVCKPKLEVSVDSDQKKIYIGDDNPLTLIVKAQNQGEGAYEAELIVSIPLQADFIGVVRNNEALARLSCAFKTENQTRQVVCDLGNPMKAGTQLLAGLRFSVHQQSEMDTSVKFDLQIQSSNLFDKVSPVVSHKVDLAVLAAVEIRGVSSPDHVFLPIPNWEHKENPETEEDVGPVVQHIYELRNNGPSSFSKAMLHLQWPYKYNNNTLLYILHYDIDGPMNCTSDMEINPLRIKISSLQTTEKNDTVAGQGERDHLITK
T1 sequence (P06756 891-1048 partner limits assumed): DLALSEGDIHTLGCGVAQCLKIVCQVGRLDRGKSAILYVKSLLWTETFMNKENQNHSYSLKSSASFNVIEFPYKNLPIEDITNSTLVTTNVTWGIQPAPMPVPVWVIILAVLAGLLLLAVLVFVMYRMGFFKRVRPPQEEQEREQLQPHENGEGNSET
T1 sequence (P05106 27-788): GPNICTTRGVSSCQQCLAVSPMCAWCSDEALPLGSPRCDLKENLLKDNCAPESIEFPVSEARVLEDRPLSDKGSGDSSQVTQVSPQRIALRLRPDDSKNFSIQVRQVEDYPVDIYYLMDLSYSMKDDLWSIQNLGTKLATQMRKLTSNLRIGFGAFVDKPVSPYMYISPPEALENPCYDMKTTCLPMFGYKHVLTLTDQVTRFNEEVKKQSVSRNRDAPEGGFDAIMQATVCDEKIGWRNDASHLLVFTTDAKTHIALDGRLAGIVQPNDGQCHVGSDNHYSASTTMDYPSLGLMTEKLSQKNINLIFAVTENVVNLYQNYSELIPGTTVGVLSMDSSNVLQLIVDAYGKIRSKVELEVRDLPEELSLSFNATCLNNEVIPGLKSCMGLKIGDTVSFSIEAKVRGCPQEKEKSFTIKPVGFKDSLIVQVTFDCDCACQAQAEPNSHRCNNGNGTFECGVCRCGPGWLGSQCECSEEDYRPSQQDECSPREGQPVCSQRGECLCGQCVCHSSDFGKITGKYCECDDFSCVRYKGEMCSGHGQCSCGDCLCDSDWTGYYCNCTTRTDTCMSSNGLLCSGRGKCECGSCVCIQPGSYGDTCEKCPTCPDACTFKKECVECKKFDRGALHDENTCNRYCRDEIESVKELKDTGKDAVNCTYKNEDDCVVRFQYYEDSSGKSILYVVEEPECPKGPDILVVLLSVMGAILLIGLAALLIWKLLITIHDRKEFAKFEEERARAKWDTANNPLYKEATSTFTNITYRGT
Protocol: (A) Binding of heat-treated CNGRC-TNF and TNF to solid phases coated with purified human integrins. Single concentration (5 μg/ml) or various concentrations (inset) of CNGRC-TNF and TNF were used. Binding was detected with anti-TNF antibodies as described in Materials and Methods.
(B) Binding of biotinylated CNGRC-TNF1-11, CARAC-TNF1-11 and FN-I5 (complexed with streptavidin-peroxidase) to purified human integrins. Binding was detected by chromogenic reaction with o-phenylendiammine.
(§2) Human αvβ3, αvβ5, α5β1 and α1β1 integrins solutions, 0.5-2 μg/ml in phosphate buffered saline with Ca^2+ and Mg^2+ (DPBS, Cambrex), were added to 96-well polyvinylchloride microtiter plates (50 μl/well) and left to incubate overnight at 4° C. […] Bound peroxidase was detected by adding o-phenylendiammine chromogenic substrate.
(§3) Binding of biotinylated peptides (CNGRC (SEQ ID NO: 6)-TNF1-11, CARAC (SEQ ID NO: 36)-TNF1-11 and FN-I5) to purified integrins was studied using streptavidin-peroxidase conjugate complexes. Complexes were prepared by mixing various quantities (0.5-1 μg) of heat-treated biotinylated peptides in DPBS containing 3% BSA with 0.03 units of streptavidinperoxidase (binding capacity: 1 μg of biotin/unit of streptavidin-peroxidase) (final volume 15 μl). […] After washing with DPBS, bound peroxidase was detected by chromogenic reaction as described above. […]

EA.hy926 cells [4] = experiment: EA.hy926 cell adhesion assay on coated microtiter plates; assay type: cell-based, human; details: for EA.hy926 cell adhesion to coated product after heat-treatment: 0.1 M ammonium bicarbonate buffer, pH 8.5, 16 h at 37° C.
Protocol: Adhesion of EA.hy926 cells to microtiter plates coated with various peptides and proteins before and after accelerated aging. Accelerated aging was performed by peptide incubation in 0.1 M ammonium bicarbonate buffer, pH 8.5, for 16 h at 37° C. (“heat-treatment”). Adhesion to: recombinant FN-I4-5 or control protein (FN-I4-5 (SGS)) (A), synthetic FN-I5 (B), recombinant CNGRC-TNF, CNGRC-TNF1-11 and control CARAC-TNF1-11 peptide (C), CDGRC-TNF (D). Heat-treated (37° C.) and untreated (−20° C.) products were adsorbed onto the plastic surface of microtiter wells (overnight at 4° C.). Microphotograph of wells coated with 30 μg/ml of heat-treated FN-I5 or BSA (B, right) or with 10 μg/ml of recombinant CNGRC-TNF or CDGRC-TNF (C, right), ×200. Cell adhesion assay was carried out as described in Materials and Methods. The TNF fusion constructs, including the TNF1-11 fusion constructs, were made as described Materials and Methods, and include a “G” linker.
as §1

[5] = isoaspartate (isoAsp) quantification, ISOQUANT enzymatic assay; details: for isoAsp (%): pmol of isoAsp/pmol of peptide (%)
Excerpt: IsoAsp content in untreated and “heat treated” CNGRC (SEQ ID NO: 6)—TNF and peptides was quantified by using the ISOQUANT™ Isoaspartate Detection Kit (Promega).

[6] = bolus, humans (Fraker et al., 1995); cited from earlier work
αvβ3 integrin [7] = molecular target: T1, αvβ3 integrin; experiment: competitive binding of biotinylated NGR-TNF to αvβ3 coated plates; details: FN-I5 incubated at 37° C. in DMEM
Protocol: Biotinylated NGR-TNF (4 μg/ml) was mixed with different amount of the indicated peptides and added to αvβ3 coated plates. Binding was detected as described in Materials and Methods. IC50 was determined by nonlinear regression analysis using the GraphPad Prism software. The kinetics of deamidation of FN-I5 was determined by plotting the inhibitory concentration (IC50) versus the incubation times. Bars represent the confidence intervals for each determined IC50.
as §2, with “C. All subsequent steps were carried out at room temperature.” for “C.”
as §3

Q: For “heat-treated FN-I5: FN-I5 incubated in 0.1 M ammonium bicarbonate buffer, pH 8.5, 16 h at 37° C. (deamidated)”, which “effect of PIMT on pro-adhesive activity” value (EA.hy926 cells [1]) is on record?
A: almost completely inhibited

Q: And the “inhibition of adhesion of EA.hy926 cells to vitronectin” value [2]?
A: could inhibit

Q: And the “tumor growth in RMA lymphoma bearing mice” value (RMA lymphoma)?
A: significantly inhibited tumor growth

Q: With “TNF: murine TNF by recombinant DNA technology; in b159 bolus TNF in humans (literature) [reference compound]” as the molecule, how does the “Cytolytic Activity” value (L-M mouse fibroblasts) read?
A: 8 × 10^8 U/mg

Q: And the “binding to αvβ3” value (αvβ3 integrin [3]; heat-treated products, in words)?
A: No binding

Q: What about the “EA.hy926 cell adhesion to coated product after heat-treatment” value (EA.hy926 cells [4]) of the same molecule?
A: No adhesion

Q: And the “EA.hy926 cell adhesion to coated product” value (EA.hy926 cells [4]; before heat treatment)?
A: No adhesion

Q: And the “isoAsp (%)” value [5]?
A: 2.6%

Q: What about the maximum tolerated dose [6] of the same molecule?
A: 218-410 μg/m^2

Q: Which “incubation time to maximal competitive binding activity” value (αvβ3 integrin [7]) does the source give for “FN-I5: synthetic peptide, 5th type I repeat of human fibronectin, residues 230-274, additional N-terminal acetyl-glycine, Glu250 in place of Asp250” here?
A: 24 to 48 h

B1: Cys-Asn-Gly-Arg-Cys-Gly-(SEQ ID NO: 7)TNF (protein)
chain: CNGRCGLRSSSQNSSDKPVAHVVANHQVEEQLEWLSQRANALLANGMDLKDNQLVVPADGLYLVYSQVLFKGQGCPDYVLLTHTVSRFAISYQEKVNLLSAVKSPCPKDTPEGAELKPWYEPIYLGGVFQLEKGDQLSAEVNLPKYLDFAESGQVYFGVIAL
notes: murine TNF fused with the C-terminus of CNGRCG, recombinant
Q: What does the source list for B1?
A: cytolytic activity after heat treatment (L-M mouse fibroblasts; 0.1 M ammonium bicarbonate buffer, pH 8.5, 37° C., 4 h of treatment): no loss of cytolytic activity; Cytolytic Activity (L-M mouse fibroblasts): 2.96 (±0.56)×10^8 U/mg; Cytolytic Activity (L-M mouse fibroblasts; listed as NGR-TNF): 2.9 × 10^8 U/mg; binding to αvβ3 before heat treatment (αvβ3 integrin [3]; untreated, data not shown): to a lower extent; EA.hy926 cell adhesion to coated product after heat-treatment (EA.hy926 cells [4]): increased cell adhesion; isoAsp content after heat treatment ([5]; 0.1 M ammonium bicarbonate pH 8.5, 16 h, 37° C.): > 0.5 mol isoAsp/mol CNGRC-TNF subunit; isoAsp (%) [5]: 29.8%

B2: heat-treated CNGRC-TNF: CNGRC-TNF incubated in 0.1 M ammonium bicarbonate buffer, pH 8.5, 16 h at 37° C. (protein)
chain: B1 chain
Q: For B2, which “effect of PIMT on pro-adhesive activity” value (EA.hy926 cells [1]) is on record?
A: almost completely inhibited
